A protein production outcome set (Wang et al. 2014)

Experiment: label from the status in PepcDB records

Sequence	protein production
QETGISMIGERTNSNGSKAFREAMLSGDWEKCVDIAKQQTRDGAHMLDLCVDYVGRDGTADMATLAALLATSSTLPIMIDSTEPEVIRTGLEHLGGRSIVNSVNFEDGDGPESRYQRIMKLVKQHGAAVVALTIDEEGQARTAEHKVRIAKRLIDDITGSYGLDIKDIVVDCLTFPISTGQEETRRDGIETIEAIRELKKLYPEIHTTLGLSNISFGLNPAARQVLNSVFLNECIEAGLDSAIAHSSKILPMNRIDDRQREVALDMVYDRRTEDYDPLQEFMQLFEGVSAAD	not failed
QGSVSTNLQEKGLVVSIVDTLMFDTGRAEVKPDFQKKLVEIGEILKTIDNYIRIEGHTDNTPISNSQYASNIELGSARSNNVEHLFIDVSKIPVTQMYTVSYADTRPVADNNSEAGKARNRRVDIVILNSK	failed
QIAAVDPAGMSVIRDRNQLFRVNSAGEVENTYTLKVINKTQQVQEYNLDVKGLNDVSWYGKQTIQVEPGEVLNLPMSLGADPDKLNSAITTIQFILTDKSNEFTIEVESRFIKKL	not failed
QIAELPYAMRINNSFEARKSPHAFVNLLNYILLEKSGADIACTALFDSANGFDEKITMRDIINNYPFPNTFKVIELSGKDIKLAIERSASYFDIVNHKITVNKEFLEPKPQHFNYDIFAGIQYTIHVSHPYGERVSDLLINDAPIQSDQIYTICVNNYRAVGGGNYDMYVNKPVIKDIQIEGAQLLIDYLSHNDLSQIPQVIDFNVVK	failed
QKVQDAAMQEDPKALDEVVIVARQNINELDIRAKSGVVQRVDVERLNSKPMIDMSLALQGAVPGLIITNTGDLGSKPEIRIRGNSSFRKGDMANEPLYVMDGKVISSDAFMTLNPADIQEIKVLKDAVACALYGIKAANGVIEITSQRGNPDG	failed
QPTGTMTTDSKLTSKESALALTNSAYLKNTVFNKMTPGWGCNTILLLEYMTGKATSENSQSNYKDFQDLLVSDRSLYIEDWWQDCYAGIANCNLALQKLGEFENLDASLVNGYMAEVKFMRALYYFYLVRIFGDVPKITTVQSELGELQVSRAPVKEIYDEIIIPDLLEAEQSDLAFSDHTGRVSMGAVKALLADVYLTYAGYPLQGGKSYYAESAKRSLEVIKSNEYTLFTDYESLRLPSQNNKGEFIYQVQFSLNKRHNESVRIFLPSRSGISAYDLEYGSLIPTKEFVESFEKGDKRTEEKQYFFTNYKGHPSKFSPGAAELEFMDLNGYYIYKFFDQVAVDNTAKSDLNWSVYRYTDVLLMYAEAQVNADGTPNQQSIDIVNQIRGRAGLAPFKQTNASAFLEEVWDQRYFDLCYENKMWFDMLRTRKIRDDKSGEYVDFIGYKTNWGKVYTETQLLFPIPLSERQANPNLTQNQGY	not failed
QRSTFGTKHMVFRTDQLIDGIERNVRITSEEVNAALPVPLLDRQDPGAILISGSSYTEPSEALQTMREAMTQEKFSGSVEIPLGIVRALLDLGFTDEAASWLEDLVPRLGNEWRHQWYSGVTSLLLDDYLTAQQHFNEVYNILPGESAPKLARAAVCEMLLQEKGLESTALLDPAVTVAAADIKGEGMSNIWRELTSDPATLRFKAIYLYALVWRTNPTTVSSAFGLARQLAAENQIDLAVSTLDRVPQNSTHRRMAELTAILHLLGDLSEARLRRAARRLEAIPTNEPRFLQIQIAIMNAALQWLRTGGEAANDPIFEYPFTQRGLRNGLSATLRQLARSAPSSHRYALVDVANQVRPMTWF	not failed
QSLELGTMQPSFTSVTGKGGVKVIDGSSVKFGRFDGAEPHCVGLTDLVTEQDGSSMAAGFMQWDNAFFPWTLNYDEIDMVLEGELHVRHEGETMIAKAGDVMFIPKGSSIEFGTPTSVRFLYVAWPANWQSV	not failed
QSNVVIMQDPGGGYGDALRKVMYDPFEKETGIKVVTVQEARSGPRIKAQAEAGKAQWDLTFIFDQETKLLGDCCLADIDYSKLSESAHKTLAAMPDNLKRKKGVALQVIGVGLVYNKDKFKGDKAPQTWADFWDVKKFPGRRCMPAWPRFTFEAALMADGVTKDKLYPIDMDRALKKLKEIKPHVVKWWTTAAQPPQLILDGEADMCLAYTGSMSKLALEGAPIDLTFNQGFVYYDFFSIPKGAPNYDNALKLLSWRLDPKRAAQLTSTFPVALPSKVVFDAATDKNIARYWANNPENVAKAIEWSPDFWGAPSPAGNSTNEEYGQEKLNAMLAQ	not failed
QYCWQHRFPTGYFSICDRYMNGTCPEGNSCKFAHGNAELHEWEERRDALKMKLNKA	not failed
RAKALQKVKEAITLHGGQTILSTGITGDDARLAKAVCEAGVKLLEPNHPALALARGHKGVSNMHAAEQIRHEITNSQMAEAVHGVRNVVPDDIFITVGIAGGFTETLPVPLSEKEILEIARAGADGLHTHKSDWDDLQDIVNLAHQYGLTVDAYIGHPDDLHTFGIPARTPEEVASVAKRMQDIGVDMIGLMTGMSYEGVAAGDIPQMIKDRLRALVGAVDVPTLAEGGINLANAKAFKDTGVNILVVGTAI	failed
RDFLPALGSMRPPIIIHRAGKKYGFTLRAIRVYMGDSDVYTVHHMVWHVEDGGPASEAGLRQGDLITHVNGEPVHGLVHTEVVELILKSGNKVAISTTPLENTSIKVGPARKGSY	failed
RDRRDSRLRVAASMTIAEYLLPGWLVALRAQLPDTAVSLLAGNSAAVAERLLADDADLGFVEGVSVPTGLDSAVIGHDRLIVVTAPGHPWARRRRPLEAAELAATPLILREKGSGTRQVLDAALGGLARPLIELSSTTAVK	failed
REHNYPDTCFEHFVASSVAVYPVFELAAKSTGRIGQLLRSAVYESSAWQQGGNTHFGAFLLLIPLAMAAGEISREQGEQPGCGKTFFRIEAEEFENLASHAHAFVRETDCEDAVEFYRAFGHAGVRVNSVEEFDLEDPEATSDLRNQNITLYSLMEIAKGYDLIANEWTSGFGRCLEGAKIILDFMDARNCREEALAGGSVSICSGTGINEAVVYTFLKLLSKHRDTFIQTKFDAETADYVSSRAGEVLSGWEISGKKAGDFASILPRIQEFDSELLDKRINPGSTADIIIAALFIALLGGLR	failed
RFEHGTVLAECLSPASPDTSCELLKRAAKFLAYVHGSDDPASGRIGGVRKEVRNEVRMWLRAVLPDEPSDGANELFEEWWALLEGIGLPPQPRRDAHAFNWLVTDNDRIIAVDLEAARWRPMGYELAQLT	failed
RGIAVYVEHHNGNIHPVTYELIGKAREMASKIKQPVYCVFVGKDIKDKCSNLISYGVDEVFVYDEDEFKDFRIEPYSKAIENFIDKIKPTIVLVGGTTLGRSLAPRLAARFRTGLTADCTILDIQSNTDLDQIRPAFGGNIMAHINTPNNRPQFATVRYKIFSAPEKIENTTGKITLCKVEKKELKSKIKVLS	not failed

Sequence	protein production
RGIIRLIKDNKSLTMKNTEVMLHGSSLAFDASTLEIYAALLNGACLSIIDKEDLIDSQTLKEKLKNDHVNRAFFTTPLFNSLCEQDPSVFNELEQVIIGGDRASNKHLKIVMKNSKKTQFYNGYGPTENTVFTTMHNIQYSELEGDIPIGKA	failed
RHLVKVPCRIGASHTTGRLILPTLLANLSAVSDRFDFQVTLANSAEILTAMSQHKLDFGLVEKPLVTDQLNRLPFGHDELVHAGDFASPLWLLREPNSGVRHYTNAFLKARNIQPAQVMVIHSNQII	failed
RLEITPEAFLSDPTPAGVAARAAYELDPDIHVLPLADGTGEPLYLLHPSGGDVLCYMGLARELQGRPVYAVADPGLEDTPMPVDLDVVALTYGRVIMAHRAGLADTGKHGVREATAGYLIGGWSMGGTVAQRVAVQWRDQGIAVGALVLIDSNSPDRIRALTGMNDREVDAEFARRYLRSLQAFGAKAVDASAVTESDPASGVARALAGQGLALKDVERRISVFTRHLAGLAQLRVRPLVDVPTLLVIAEHQSPANSGVGMGVDDARDTEHLGWDDNLPTSTTEIMVPGHHYSVLSAPGLEIISEQIRELLA	failed
RLKVEDALSYLDQVKLQFGSQPQVYNDFLDIMKEFKSQSIDTPGVISRVSQLFKGHPDLIMGFNTFLPPGYKIEVQTNDMVNVTTPGQVHQIPTHGI	failed
RMSHHYATIEVSQQLRQLLGDQLVILLRETPDGQALERSQNDFRRVLEQGRANTVDSAEQAALDGVRDAYLQLQAHTPALLEAPMADNDGFSEAFNGLRLRLQDLQQLALAGISEAE	not failed
RNGLDLTTYEGQVEGVEIASDPNLKIVGMMTHFPNEGLDEIRRKVDRFKVETKWLMDSAGLKRKDITLHVANSYITLNLPEAHLDMVRPGGMLYGDYPATLPYERIVSFKTRIASLHFFPAGSTIGYGSTKVLERDSILANLPIGYSDGFARSLSNKADVLINGQRARVMGKASMNTTMVDVTDIIGVQANDEVVVFGRQGFEEITAEETEEKSGRILPEHYTIWGATNPRVYR	failed
RNKPKGHLRIAIGGSTACDVLIPLLADFMTSWPDIRINLQVADKPADLISGNIDSAIRGGPMEDSTLIARKIGEATLVTCATPGYLQRYGTPASPDELHHGHRLISYLSPASGRAFPFRFTRH	failed
RNLEMIDMQIAGTEQLTAFVTFAAANIGAPEQWLTQYYGNLIERKELFGYWHKGKLLAAGECRLFDQYQTEYADLGMIVAQSNRGQGIAKKVLTFLTKHAATQGLTSICSTESNNVAAQKAIAHAGFTSAHRIVQFEFKHA	failed
RPQNTNSWQKDSIEGIDIMLAMDVSGSMQAMDFKPNRLEAAKDVAISFINNRPNDNIGMVTFAGESFTQCPLTTDHTVLLNMVQDLQMGVLDDGTAIGMGLATAVNRLKDSKAKSRVVILLTDGSNNMGDITPRMAADIARTFGIRVYTVGVGTRGEAPFPIQTEFGVRIQNVPVDIDEPTLDGIAEVSGGKYFRAVDNETLNEIYKEIDKLEKTRLMT	failed
RQLVSGRLEVAADGPHLVMPMLARLRASYPGITVNLRLGNAQETLAALLSEHVDVAVLTEVEARPGLFLEELVNSRICALLPRQHPWCERNEGVPLEELDQQIMVLREPGSITRRTFDRACAEQGVQPRVLLELDSREAVT	failed
RRCQVHLLDDRKLELLVQPKLLAKELLDLVASHFNLKEKEYFGIAFTDETGHLNWLQLDRRVLEHDFPKKSGPVVLYFCVR	failed
RRGWVREVTAEVWTGPLAPVADLAGDTGVVLSREADETWLARYQRKGVSEVALRVLESGPSVWFATVPGAEGADGAGGGGGVAAIGRCVVDGRWASFAAVEVDPAQRRRGLATAVMAALARRALDEGASAAWLQVETDNAGARALYAGMGFAAHHSYHHYREPAAAGTDR	failed
RRRNQKRANAERERLRQIIDTIPQQVFVKDADGTYTLANKAAAAAHGVAVERLEGATHDEFALSDEQRDFKSDDAAVIENGESVHIEEDGLVEADGSSHTVQTDIVPIEIASGERRALVVATDIT	failed
RSIRLPETIDLGALYLSMKDTEKGIKELNLEKDKKIFNHCFTGNCVIDWLVSNQSVRNRQEGLMIASSLLNEGYLQPAGDMSKSAVDGTAENPFLDNPDAFYYFPDSGFFCEEN	not failed
RSSEWLEKWQFVNGRFREHLQTISSEDVSFEGNLYRILQHLVPENSSLFVGNSMPIRDVDTFFEKQDRPFRIYSNRGANGIDGVVSSAMGVCEGTKAPVTLVIGDLSFYHDLNGLLAAKKLGIPLTVILVNNDGGGIFSFLPQASEKTHFEDLFGTPTGLDFKHAAALYGGTYSCPASWDEFKTAYAPQADKPGLHLIEIKTDRQSRVQLHRDMLNEAVREVKKQWEL	failed
RSTRQQAGREAEAFALQFLQQQGLRLIEQNWLCKRGELDLVMLDGDTVVFVEVRYRRHCGWGGAVESVDFRKQGKLVTAAQLFLQQVSCWADYPCRFDVIAIEGSPGSFD	failed
